In US20110008814A1:

Legend:
[1] = molecular target: mouse IgG, anti-human transferrin monoclonal antibody (mfd. by BIO MATRIX RESEARCH, INC.); assay: human transferrin sandwich ELISA, 1 ng/ml transferrin, luminol emission
[2] = molecular target: mouse IgG, anti-human transferrin monoclonal antibody (mfd. by BIO MATRIX RESEARCH, INC.); assay: human transferrin sandwich ELISA, 100 ng/ml transferrin, ABTS; reference Comparative Example 3
[3] = molecular target: mouse IgG, anti-human transferrin monoclonal antibody (mfd. by BIO MATRIX RESEARCH, INC.); assay: human transferrin sandwich ELISA, 100 ng/ml transferrin, luminol emission; reference Comparative Examples 6 to 8
[4] = molecular target: mouse IgG, anti-human transferrin monoclonal antibody (mfd. by BIO MATRIX RESEARCH, INC.); assay: direct ELISA, mouse IgG immobilized from 10 ng/ml, about 0.8 µg/ml secondary antibody, ABTS
[5] = molecular target: mouse IgG, anti-human transferrin monoclonal antibody (mfd. by BIO MATRIX RESEARCH, INC.); assay: direct ELISA, mouse IgG immobilized from 100 ng/ml, about 0.8 µg/ml secondary antibody, ABTS
[6] = molecular target: mouse IgG, anti-human transferrin monoclonal antibody (mfd. by BIO MATRIX RESEARCH, INC.); assay: human transferrin sandwich ELISA, 100 ng/ml transferrin, luminol emission
[7] = molecular target: mouse IgG, anti-human transferrin monoclonal antibody (mfd. by BIO MATRIX RESEARCH, INC.); assay: direct ELISA on immobilized mouse IgG, ABTS; reference Comparative Examples 1 and 2
[8] = molecular target: mouse IgG, anti-human transferrin monoclonal antibody (mfd. by BIO MATRIX RESEARCH, INC.); assay: human transferrin sandwich ELISA, 100 ng/ml transferrin, 375 ng/ml labeled antibody, ABTS
[9] = molecular target: mouse IgG, anti-human transferrin monoclonal antibody (mfd. by BIO MATRIX RESEARCH, INC.); assay: human transferrin sandwich ELISA, 1 ng/ml transferrin, luminol emission; reference Comparative Example 7
[10] = molecular target: mouse IgG, anti-human transferrin monoclonal antibody (mfd. by BIO MATRIX RESEARCH, INC.); assay: human transferrin sandwich ELISA, 1 ng/ml transferrin, luminol emission; reference horseradish POD-labeled antibodies
[11] = molecular target: mouse IgG, anti-human transferrin monoclonal antibody (mfd. by BIO MATRIX RESEARCH, INC.); assay: human transferrin sandwich ELISA, 100 ng/ml transferrin, 400 ng/ml labeled antibody, ABTS

Row | Substance | initial stage emission value [1] [RLU] | fold of absorbance against the horseradish POD-labeled antibody [2] [times] | fold of initial stage emission value against the horseradish POD-labeled antibodies [3] [times] | absorbance at 405 nm [4] | absorbance at 405 nm [5] | initial stage emission value [6] [RLU] | fold of absorbance against the horseradish POD-labeled antibody [7] [times] | absorbance at 405 nm [8] | fold of initial stage emission value against the horseradish POD-labeled antibody [9] [times] | fold of initial stage emission value against the horseradish POD-labeled antibodies [10] [times] | absorbance at 405 nm [11]
1 | POD-labeled anti-mouse Fab′ (goat anti-mouse IgG (H+L) antibody, Bethyl A90-116A, pepsin-digested and reduced to Fab′, labeled with maleimidated POD) | 800000 | 2.2 | > 18 | 0.4 | 1.9 | 4.2e+06 | 1.3 to 1.4 | 1 | 8 |  | 
2 | POD-labeled anti-mouse IgG (goat anti-mouse IgG (H+L) antibody, Bethyl A90-116A, reduced and labeled with maleimidated POD) | 300000 |  | > 14 |  |  | 3.5e+06 |  |  |  | > 3 | 
3 | Peroxidase-conjugated AffiniPure F(ab′)2 Fragment Goat Anti-mouse IgG (H+L) (mfd. by Jackson ImmunoResearch Labs.) |  |  |  | 0.3 | 1.4 |  |  |  |  |  | 0.45
4 | Peroxidase-conjugated AffiniPure Goat Anti-mouse IgG (H+L) (mfd. by Jackson ImmunoResearch Labs.) (antibody) | 100000 |  |  | 0.3 | 1.4 |  |  |  |  |  | 
